According to IntAct's records for PubMed 29039417:

B1: BBSome complex member BBS5 (Homo sapiens), Q8N3I7 (parent)
chain: MSVLDALWEDRDVRFDLSAQQMKTRPGEVLIDCLDSIEDTKGNNGDRGRLLVTNLRILWHSLALSRVNVSVGYNCILNITTRTANSKLRGQTEALYILTKCNSTRFEFIFTNLVPGSPRLFTSVMAVHRAYETSKMYRDFKLRSALIQNKQLRLLPQEHVYDKINGVWNLSSDQGNLGTFFITNVRIVWHANMNDSFNVSIPYLQIRSIKIRDSKFGLALVIESSQQSGGYVLGFKIDPVEKLQESVKEINSLHKVYSASPIFGVDYEMEEKPQPLEALTVEQIQDDVEIDSDGHTDAFVAYFADGNKQQDREPVFSEELGLAIEKLKDGFTLQGLWEVMS
partner: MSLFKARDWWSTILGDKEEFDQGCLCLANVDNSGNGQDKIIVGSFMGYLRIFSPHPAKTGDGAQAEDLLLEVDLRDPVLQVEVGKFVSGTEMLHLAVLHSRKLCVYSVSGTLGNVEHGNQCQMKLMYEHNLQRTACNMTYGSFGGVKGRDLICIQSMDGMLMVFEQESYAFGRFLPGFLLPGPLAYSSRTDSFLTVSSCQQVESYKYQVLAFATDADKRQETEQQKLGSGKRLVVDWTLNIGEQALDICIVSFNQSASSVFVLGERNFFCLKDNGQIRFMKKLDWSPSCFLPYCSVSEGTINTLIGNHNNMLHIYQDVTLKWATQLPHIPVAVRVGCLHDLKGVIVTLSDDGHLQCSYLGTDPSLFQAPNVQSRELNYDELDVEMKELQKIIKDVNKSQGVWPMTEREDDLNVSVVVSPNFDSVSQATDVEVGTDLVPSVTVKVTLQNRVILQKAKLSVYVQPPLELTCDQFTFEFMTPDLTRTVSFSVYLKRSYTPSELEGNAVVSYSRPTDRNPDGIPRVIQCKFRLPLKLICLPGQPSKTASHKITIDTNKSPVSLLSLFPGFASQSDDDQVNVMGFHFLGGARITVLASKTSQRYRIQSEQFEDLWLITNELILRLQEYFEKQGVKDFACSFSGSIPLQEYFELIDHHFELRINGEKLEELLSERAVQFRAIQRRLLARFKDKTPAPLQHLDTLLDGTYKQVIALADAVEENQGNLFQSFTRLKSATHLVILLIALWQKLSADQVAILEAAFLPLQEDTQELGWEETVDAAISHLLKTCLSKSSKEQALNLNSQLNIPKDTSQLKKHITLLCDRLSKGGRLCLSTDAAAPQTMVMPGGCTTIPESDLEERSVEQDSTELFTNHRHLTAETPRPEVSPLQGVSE
B2: Isoform 2 of Bardet-Biedl syndrome 7 protein (Homo sapiens), Q8IWZ6-2 (parent)
chain: MDLILNRMDYLQVGVTSQKTMKLIPASRHRATQKVVIGDHDGVVMCFGMKKGEAAAVFKTLPGPKIARLELGGVINTPQEKIFIAAASEIRGFTKRGKQFLSFETNLTESIKAMHISGSDLFLSASYIYNHYCDCKDQHYYLSGDKINDVICLPVERLSRITPVLACQDRVLRVLQGSDVMYAVEVPGPPTVLALHNGNGGDSGEDLLFGTSDGKLALIQITTSKPVRKWEIQNEKKRGGILCIDSFDIVGDGVKDLLVGRDDGMVEVYSFDNANEPVLRFDQMLSESVTSIQGGCVGKDSYDEIVVSTYSGWVTGLTTEPIHKESGPGEELKINQEMQNKISSLRNELEHLQYKVLQERENYQQSSQSSKAKSAVPSFGINDKFTLNKDDASYSLILEVQTAIDNVLIQSDVPIDLLDVDKNSAVVSFSSCDSESNDNFLLATYRCQADTTRLELKIRSIEGQYGTLQAYVTPRIQPKTCQVRQYHIKPLSLHQRTHFIDHDRPMNTLTLTGQFSFAEVHSWVVFCLPEVPEKPPAGECVTFYFQNTFLDTQLESTYRKGEGVFKSDNISTISILKDVLSKEATKRKINLNISYEINEVSVKHTLKLIHPKLEYQLLLAKKVQLIDALKELQIHEGNTNFLIPEYHCILEEADHLQEEYKKQPAHLERLYG
partner: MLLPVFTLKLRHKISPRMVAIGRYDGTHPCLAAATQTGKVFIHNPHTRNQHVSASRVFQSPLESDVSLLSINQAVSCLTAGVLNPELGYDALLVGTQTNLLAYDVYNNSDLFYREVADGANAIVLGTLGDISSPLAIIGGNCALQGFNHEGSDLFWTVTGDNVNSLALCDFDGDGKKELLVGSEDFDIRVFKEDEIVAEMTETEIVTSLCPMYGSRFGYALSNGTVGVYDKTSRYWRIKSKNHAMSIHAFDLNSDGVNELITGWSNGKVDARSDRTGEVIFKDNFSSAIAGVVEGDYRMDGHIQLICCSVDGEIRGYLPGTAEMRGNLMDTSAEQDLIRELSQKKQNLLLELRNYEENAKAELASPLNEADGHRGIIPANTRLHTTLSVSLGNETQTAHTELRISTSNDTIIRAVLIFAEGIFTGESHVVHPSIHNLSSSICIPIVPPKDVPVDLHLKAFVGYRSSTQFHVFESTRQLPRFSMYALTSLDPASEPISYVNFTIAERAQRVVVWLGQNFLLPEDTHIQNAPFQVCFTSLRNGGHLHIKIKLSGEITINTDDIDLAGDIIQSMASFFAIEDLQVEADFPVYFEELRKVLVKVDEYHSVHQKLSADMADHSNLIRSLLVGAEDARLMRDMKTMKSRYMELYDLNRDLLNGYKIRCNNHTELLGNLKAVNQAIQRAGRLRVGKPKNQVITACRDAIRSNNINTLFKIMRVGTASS

Variants of: B1
Conditions: with pthb1_human BBS9, Q3SYG4

Row | Variant | effect of a mutation on the interaction
1 | F331E | disrupting interaction strength
2 | F331K | with no effect
3 | F331A | with no effect
4 | F331S | disrupting interaction strength
5 | E319K | with no effect
6 | E319A | with no effect
7 | S317A | with no effect
8 | S317E | with no effect
9 | S317K | with no effect
10 | W337A | with no effect
11 | W337E | with no effect
12 | W337K | with no effect
13 | D329A | with no effect
14 | D329K | with no effect
15 | D329E | with no effect
16 | L322E | with no effect
17 | L322K | disrupting interaction strength
18 | L322A | with no effect
19 | P314A | with no effect
20 | P314K | with no effect
21 | P314E | with no effect

Row | Variant | effect of a mutation on the interaction
22 | E313A | with no effect
23 | E313K | with no effect
24 | S341K | with no effect
25 | S341A | with no effect
26 | S341E | with no effect
27 | F316E | with no effect
28 | F316K | with no effect
29 | F316A | with no effect
30 | L333E | with no effect
31 | L333A | with no effect
32 | L333K | with no effect
33 | G335E | with no effect
34 | G335K | with no effect
35 | G335A | with no effect
36 | K328E | with no effect
37 | K328A | with no effect
38 | E325K | with no effect
39 | E325A | with no effect
40 | D311K | with no effect
41 | E338A | with no effect
42 | E338K | with no effect

Row | Variant | effect of a mutation on the interaction
43 | L320A | with no effect
44 | L320K | with no effect
45 | L320E | with no effect
46 | I324A | with no effect
47 | I324E | with no effect
48 | I324K | with no effect
49 | K326E | with no effect
50 | K326A | with no effect
51 | L327K | with no effect
52 | L327E | with no effect
53 | L327A | with no effect
54 | G321E | with no effect
55 | G321A | with no effect
56 | G321K | with no effect
57 | T332K | with no effect
58 | T332E | with no effect
59 | T332A | with no effect
60 | V315E | with no effect
61 | V315A | with no effect
62 | V315K | with no effect
63 | G330A | with no effect

Row | Variant | effect of a mutation on the interaction
64 | G330E | with no effect
65 | G330K | with no effect
66 | L336K | with no effect
67 | L336A | with no effect
68 | L336E | with no effect
69 | A323K | with no effect
70 | A323E | disrupting interaction strength
71 | M340A | with no effect
72 | M340E | with no effect
73 | M340K | with no effect
74 | Q334E | with no effect
75 | Q334K | with no effect
76 | Q334A | with no effect
77 | V339K | with no effect
78 | V339E | with no effect
79 | V339A | with no effect
80 | R312K | with no effect
81 | R312A | with no effect
82 | R312E | with no effect
83 | E318K | with no effect
84 | E318A | with no effect

Variants of: B2
Conditions: with bbs2_human BBS2, Q9BXC9

Row | Variant | effect of a mutation on the interaction
85 | M338E | with no effect
86 | M338K | with no effect
87 | M338A | with no effect
88 | N335E | with no effect
89 | N335A | with no effect
90 | N335K | with no effect
91 | S344A | with no effect
92 | S344E | with no effect
